# Assay results: patent EP4289863A9 (Shanghai Huaota Biopharmaceutical Co., Ltd., dated 2024)
# B1: IL17A-IL36R bispecific antibody 700005 (bispecific antibody)
# heavy (part 1 of 2): QVQLVQSGSELKKPGASVKVSCKASEYIFTNYGMNWVKQAPGQGFEWMGWIDTNTGEPTYAQGFTGRFVFSLDTSVSTAYLQISSLKAEDTATYYCANYGWGYFDYWGQGTTVTVSS
# heavy (part 2 of 2): GGGGSGGGGSGGGGSGGGGSQIVLTQSPGTLSLSPGERATLSCRASSSVSSSYLHWYQQKPGQAPRLWIYSTSSRATGIPDRFSGSGSGTDFTLTISRLEPEDFATYYCQQFQSSPLTFGQGTKLEIKGGGGSGGGGSGGGGSQVQLVQSGAEVKKPGASVKVSCKASGYTFTSSWMHWAKQAPGQGLEWIGEIHPNSAKTNYNQKFQGRVTMTRDTSISTAYMELSRLRSDDTAVYYCARVDYGKPWFAYWGQGTLVTVSS
# light: DVVMTQTPPSLPVNPGEPASISCRSSQSLVHSNGYTYLHWYLQKPGQSPQLLIYKVSNHLSGVPDRFSGSGSGTDFTLKISWVEAEDVGVYFCSQSTHVPYTFGGGTKLEIKRTVAAPSVFIFPPSDEQLKSGTASVVCLLNNFYPREAKVQWKVDNALQSGNSQESVTEQDSKDSTYSLSSTLTLSKADYEKHKVYACEVTHQGLSSPVTKSFNRGEC
# notes: also called 70005; not shown: heavy constant region CH1-CH2-CH3
# Legend:
# [1] = target: T1, IL36R (analyte of Table 17) (Homo sapiens (Human), UniProt Q9HB29 20-335); assay: SPR Biacore 8K, antibody captured on anti-human chip, antigen as analyte, 1:1 model
# T1 sequence: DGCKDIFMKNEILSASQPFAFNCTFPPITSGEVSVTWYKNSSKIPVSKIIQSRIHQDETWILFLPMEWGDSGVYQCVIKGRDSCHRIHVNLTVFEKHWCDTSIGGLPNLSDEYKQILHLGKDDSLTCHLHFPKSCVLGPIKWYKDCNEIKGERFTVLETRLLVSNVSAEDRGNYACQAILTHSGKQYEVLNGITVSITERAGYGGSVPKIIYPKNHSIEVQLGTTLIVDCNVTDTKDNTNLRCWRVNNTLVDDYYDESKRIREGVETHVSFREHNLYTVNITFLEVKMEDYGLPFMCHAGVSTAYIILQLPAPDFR
# [2] = target: T2, IL17A (analyte of Table 17) (Homo sapiens (Human), UniProt Q16552 24-155); assay: as above
# T2 sequence: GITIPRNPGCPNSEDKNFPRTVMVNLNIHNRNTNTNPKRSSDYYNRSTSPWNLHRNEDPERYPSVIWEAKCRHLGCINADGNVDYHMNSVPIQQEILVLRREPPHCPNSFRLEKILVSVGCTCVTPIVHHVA
# human IL-36R [3] = target: T3, human IL-36R (human, UniProt Q9HB29 20-575); assay: cell-based or functional assay
# T3 sequence (looked up): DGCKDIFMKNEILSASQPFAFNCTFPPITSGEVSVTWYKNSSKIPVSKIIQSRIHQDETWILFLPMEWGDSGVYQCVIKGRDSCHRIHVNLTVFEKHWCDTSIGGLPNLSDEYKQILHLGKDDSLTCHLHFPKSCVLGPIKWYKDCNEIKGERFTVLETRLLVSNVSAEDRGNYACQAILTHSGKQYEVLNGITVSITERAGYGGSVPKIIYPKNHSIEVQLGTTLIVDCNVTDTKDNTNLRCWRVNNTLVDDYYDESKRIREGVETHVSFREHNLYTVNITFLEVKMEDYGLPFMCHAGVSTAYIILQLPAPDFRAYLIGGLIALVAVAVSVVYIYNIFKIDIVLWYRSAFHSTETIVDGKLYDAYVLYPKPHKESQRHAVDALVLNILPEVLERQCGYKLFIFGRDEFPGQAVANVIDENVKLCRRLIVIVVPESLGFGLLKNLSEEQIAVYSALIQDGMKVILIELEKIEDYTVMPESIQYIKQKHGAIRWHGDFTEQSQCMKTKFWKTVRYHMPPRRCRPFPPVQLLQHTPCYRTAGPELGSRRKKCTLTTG
# human IL-36R [4] = target: T3, human IL-36R; assay: flow cytometry on CHO-K1-huIL-36R-5E10/2F10 cells
# Human IL-17A = target: T4, Human IL-17A (human, UniProt Q16552 24-155); assay: ELISA, human IL-17A coated at 1 µg/ml
# T4 construct: also called IL-17A recombinant protein; IL-17A soluble recombinant protein
# T4 sequence (looked up): T2 sequence
binder,measurement,setting,value
B1,Kd,[1],350 pM
same,koff,[1],7.2e-05 s⁻¹
same,kon,[1],205000 M⁻¹ s⁻¹
same,Kd,[2],6.1 pM
same,koff,[2],4.13e-05 s⁻¹
same,kon,[2],6.77e+06 M⁻¹ s⁻¹
same,"EC50 of inhibition of IL-6 content, NCI/ADR-RES cells stimulated with IL-36β",human IL-36R [3],450 pM
same,EC50,human IL-36R [4],747 pM
same,EC50,Human IL-17A,180 pM
